This is an account of results in patent US20120294822A1 (ALDERBIO, published 2012).

Residue numbers refer to the chain shown, from its start.

For this assay, the target named is T1, Homo sapiens CGRP-alpha (Calcitonin Gene Related Peptide alpha) (Homo sapiens, -NH2 at the C-terminal end as printed ('wherein the N-terminal phenylalanine is amidated'); 125I radiolabeled in the receptor binding assay of Example 6).
T1 construct: 37-residue synthetic peptide from American Peptides / Bachem; Coated directly on the plate in the ELISA of recombinant antibodies; also called CGRPα; human CGRPα
T1 peptide: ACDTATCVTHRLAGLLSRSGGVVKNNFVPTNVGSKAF
Description: ELISA, CGRPα coated on plate, anti-human IgG Fc-HRP detection. The procedure:
To characterize recombinant expressed antibodies for their ability to bind to human-CGRPα antibody-containing solutions were tested by ELISA. All incubations were done at room temperature. Briefly, Immulon IV plagtes (Thermo Scientific), were coated with a CGRPα containing solution (1 ut/mL in PBS) for 2 hours. CGRPα-coated plates were then washed three times in wash buffer (PBS, 0.05% Tween-20). The plates were then blocked using a blocking solution (PBS, 0.5% fish skin gelatin, 0.05% Tween-20) for approximately one hour. The blocking solution was then removed and the plates were then incubated with a dilution series of the antibody being tested for approximately one hour. At the end of this incubation, the plate was washed three times with wash buffer and further incubated with a secondary antibody containing solution (Peroxidase conjugated affinipure F(ab′)2 fragment goat anti-human IgG, Fc fragment specific (Jackson Immunoresearch) for approximately 45 minutes and washed three times. At that point a substrate solution (TMB peroxidase substrate, BioFx) and incubated for 3 to 5 minutes in the dark. The reaction was stopped by addition of a HCl containing solution (0.5M) and the plate was read at 450 nm in a plate-reader.

B1: Antibody Ab1 (antibody, human IgG1, kappa, N297A, V domains shown)
VH: QSLEESGGRLVTPGTPLTLTCTVSGLDLSSYYMQWVRQAPGKGLEWIGVIGINDNTYYASWAKGRFTISRASSTTVDLKMTSLTTEDTATYFCARGDIWGPGTLVTVSS
VL: QVLTQTASPVSAAVGSTVTINCQASQSVYDNNYLAWYQQKPGQPPKQLIYSTSTLASGVSSRFKGSGSGTQFTLTISDLECADAATYYCLGSYDCSSGDCFVFGGGTEVVVKR
notes: Chimeric (rabbit variable, human gamma-1/kappa constant) full-length anti-CGRP antibody
With B1, the binding result is “binds”.

B2: Antibody Ab7 (antibody, human IgG1, kappa, N297A, V domains shown)
VH: QEQLKESGGRLVTPGTSLTLTCTVSGIDLSNHYMQWVRQAPGKGLEWIGVVGINGRTYYASWAKGRFTISRTSSTTVDLKMTRLTTEDTATYFCARGDIWGPGTLVTVSS
VL: B1 VL with D30N, N31Y, L79V, E80Q, A82D, S97T
notes: Chimeric full-length anti-CGRP antibody
Consider B2, for which the binding result was “binds”.

B3: Antibody Ab4 (antibody, human IgG1, kappa, N297A, V domains shown)
VH: B1 VH with T22S, L26I, S30G, Q34N, D54G, N55A, R70K, A71T
VL: QVLTQTPSPVSAAVGSTVTINCQASQSVYHNTYLAWYQQKPGQPPKQLIYDASTLASGVPSRFSGSGSGTQFTLTISGVQCNDAAAYYCLGSYDCTNGDCFVFGGGTEVVVKR
As for B3, the binding result is given as “binds”.

B4: Antibody Ab11 (antibody, human IgG1, kappa, N297A, V domains shown)
VH: QSLEESGGRLVTPGGSLTLTCTVSGIDVTNYYMQWVRQAPGKGLEWIGVIGVNGKRYYASWAKGRFTISKTSSTTVDLKMTSLTTEDTATYFCARGDIWGPGTLVTVSS
VL: B1 VL with A12P, Q23R, D30Y, L79V, E80Q, A82D, S97N
notes: Chimeric full-length anti-CGRP antibody; also called Abll
For B4, the binding result is recorded as “binds”.

B5: Antibody Ab9 (antibody, human IgG1, kappa, N297A, V domains shown)
VH: QSLEESGGRLVTPGTPLTLTCTVSGIGLSSYYMQWVRQSPGRGLEWIGVIGSDGKTYYATWAKGRFTISKTSSTTVDLRMASLTTEDTATYFCTRGDIWGPGTLVTVSS
VL: B1 VL with A7P, S27N, D30N, K64R, L79V, E80Q, A82D, S97R
notes: as for B2
Take B5: the binding result is “binds”.

B6: Antibody Ab2 (antibody, human IgG1, kappa, N297A)
heavy: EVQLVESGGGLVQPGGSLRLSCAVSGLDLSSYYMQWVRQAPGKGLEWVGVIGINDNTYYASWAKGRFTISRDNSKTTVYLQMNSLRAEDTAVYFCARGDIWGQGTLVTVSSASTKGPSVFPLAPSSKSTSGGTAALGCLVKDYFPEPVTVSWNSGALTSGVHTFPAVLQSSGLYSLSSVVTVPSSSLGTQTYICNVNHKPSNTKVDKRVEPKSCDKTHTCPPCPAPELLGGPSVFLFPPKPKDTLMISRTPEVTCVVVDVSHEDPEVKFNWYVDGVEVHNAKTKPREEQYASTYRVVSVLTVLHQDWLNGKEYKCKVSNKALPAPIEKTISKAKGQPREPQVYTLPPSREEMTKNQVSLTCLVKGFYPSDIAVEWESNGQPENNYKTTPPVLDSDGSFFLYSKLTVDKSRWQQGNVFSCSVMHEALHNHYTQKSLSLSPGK
light: QVLTQSPSSLSASVGDRVTINCQASQSVYDNNYLAWYQQKPGKVPKQLIYSTSTLASGVPSRFSGSGSGTDFTLTISSLQPEDVATYYCLGSYDCSSGDCFVFGGGTKVEIKRTVAAPSVFIFPPSDEQLKSGTASVVCLLNNFYPREAKVQWKVDNALQSGNSQESVTEQDSKDSTYSLSSTLTLSKADYEKHKVYACEVTHQGLSSPVTKSFNRGEC
notes: Humanized full-length anti-CGRP antibody
For B6, the binding result is reported as “binds”.

B7: Antibody Ab12 (antibody, human IgG1, kappa, N297A, V domains shown)
VH: EVQLVESGGGLVQPGGSLRLSCAVSGIDVTNYYMQWVRQAPGKGLEWVGVIGVNGKRYYASWAKGRFTISRDNSKTTVYLQMNSLRAEDTAVYFCARGDIWGQGTLVTVSS
VL: QVLTQSPSSLSASVGDRVTINCRASQSVYYNNYLAWYQQKPGKVPKQLIYSTSTLASGVPSRFSGSGSGTDFTLTISSLQPEDVATYYCLGSYDCSNGDCFVFGGGTKVEIKR
notes: as for B6
Consider B7, for which the binding result is listed as “binds”.

B8: Antibody Ab5 (antibody, human IgG1, kappa, N297A)
heavy: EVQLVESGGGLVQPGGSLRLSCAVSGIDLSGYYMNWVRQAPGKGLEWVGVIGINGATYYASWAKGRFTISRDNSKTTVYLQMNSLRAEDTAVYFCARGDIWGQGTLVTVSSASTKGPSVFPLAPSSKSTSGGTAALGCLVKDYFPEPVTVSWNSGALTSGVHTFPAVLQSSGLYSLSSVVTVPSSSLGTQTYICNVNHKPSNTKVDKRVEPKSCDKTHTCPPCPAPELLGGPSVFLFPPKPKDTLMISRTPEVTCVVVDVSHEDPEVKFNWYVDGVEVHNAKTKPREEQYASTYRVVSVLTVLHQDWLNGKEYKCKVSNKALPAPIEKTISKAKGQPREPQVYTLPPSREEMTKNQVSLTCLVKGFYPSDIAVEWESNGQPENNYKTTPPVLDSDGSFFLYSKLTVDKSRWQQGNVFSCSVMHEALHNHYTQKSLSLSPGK
light: B6 light with D30H, N32T, S51D, T52A, S96T, S97N
Take B8: the binding result is “binds”.

B9: Antibody Ab6 (antibody, human IgG1, kappa, N297A)
heavy: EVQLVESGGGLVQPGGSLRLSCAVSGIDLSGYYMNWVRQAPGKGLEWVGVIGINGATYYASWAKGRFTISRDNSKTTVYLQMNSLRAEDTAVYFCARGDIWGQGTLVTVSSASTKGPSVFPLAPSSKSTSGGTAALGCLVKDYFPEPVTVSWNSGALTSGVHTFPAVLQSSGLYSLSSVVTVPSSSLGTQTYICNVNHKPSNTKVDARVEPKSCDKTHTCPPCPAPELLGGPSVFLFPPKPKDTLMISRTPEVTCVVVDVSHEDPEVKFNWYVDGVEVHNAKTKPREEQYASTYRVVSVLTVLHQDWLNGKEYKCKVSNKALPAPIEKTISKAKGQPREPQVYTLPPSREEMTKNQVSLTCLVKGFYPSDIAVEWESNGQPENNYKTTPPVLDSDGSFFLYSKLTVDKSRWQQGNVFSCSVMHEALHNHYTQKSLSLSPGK
light: B6 light with D30H, N32T, S51D, T52A, S96T, S97N
notes: as for B6
With B9, the binding result is on record as “binds”.

B10: Antibody Ab10 (antibody, human IgG1, kappa, N297A)
heavy: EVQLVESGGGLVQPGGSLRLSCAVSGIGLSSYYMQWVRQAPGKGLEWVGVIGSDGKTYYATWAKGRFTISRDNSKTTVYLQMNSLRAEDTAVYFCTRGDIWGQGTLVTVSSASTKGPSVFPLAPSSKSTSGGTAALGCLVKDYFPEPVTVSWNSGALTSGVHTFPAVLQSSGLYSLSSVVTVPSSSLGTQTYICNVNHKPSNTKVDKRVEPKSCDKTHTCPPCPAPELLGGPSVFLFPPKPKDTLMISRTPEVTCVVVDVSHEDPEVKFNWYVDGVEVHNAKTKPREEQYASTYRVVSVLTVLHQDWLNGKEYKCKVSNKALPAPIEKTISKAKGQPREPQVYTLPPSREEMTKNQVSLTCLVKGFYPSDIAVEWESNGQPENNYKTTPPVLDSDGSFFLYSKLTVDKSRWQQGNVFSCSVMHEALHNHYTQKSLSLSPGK
light: B6 light with S27N, D30N, S97R
notes: as for B6
In the case of B10, the binding result was “binds”.

B11: Antibody Ab3 (antibody, human IgG1, kappa, N297A)
heavy: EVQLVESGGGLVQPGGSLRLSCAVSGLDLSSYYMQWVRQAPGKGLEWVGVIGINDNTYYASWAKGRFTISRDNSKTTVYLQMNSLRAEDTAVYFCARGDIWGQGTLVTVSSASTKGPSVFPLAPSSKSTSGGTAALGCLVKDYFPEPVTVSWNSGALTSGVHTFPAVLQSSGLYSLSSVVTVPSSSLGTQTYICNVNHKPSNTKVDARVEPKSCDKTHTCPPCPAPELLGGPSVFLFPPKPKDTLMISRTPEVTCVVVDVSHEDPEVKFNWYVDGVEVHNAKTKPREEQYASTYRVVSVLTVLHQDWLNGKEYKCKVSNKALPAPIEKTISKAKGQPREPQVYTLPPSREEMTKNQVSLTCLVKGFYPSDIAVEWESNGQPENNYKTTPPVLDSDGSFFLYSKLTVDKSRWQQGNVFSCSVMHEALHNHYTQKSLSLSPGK
light: B6 light
Consider B11, for which the binding result is on record as “binds”.

B12: Antibody Ab8 (antibody, human IgG1, kappa, N297A, V domains shown)
VH: B7 VH with V29L, T30S, Y32H, I51V, V53I, K56R, R57T
VL: B7 VL with R23Q, Y30N, N31Y, N97T
notes: as for B6
For B12, the binding result is “binds”.

B13: Antibody Ab14 (antibody, human IgG1, kappa, N297A)
heavy: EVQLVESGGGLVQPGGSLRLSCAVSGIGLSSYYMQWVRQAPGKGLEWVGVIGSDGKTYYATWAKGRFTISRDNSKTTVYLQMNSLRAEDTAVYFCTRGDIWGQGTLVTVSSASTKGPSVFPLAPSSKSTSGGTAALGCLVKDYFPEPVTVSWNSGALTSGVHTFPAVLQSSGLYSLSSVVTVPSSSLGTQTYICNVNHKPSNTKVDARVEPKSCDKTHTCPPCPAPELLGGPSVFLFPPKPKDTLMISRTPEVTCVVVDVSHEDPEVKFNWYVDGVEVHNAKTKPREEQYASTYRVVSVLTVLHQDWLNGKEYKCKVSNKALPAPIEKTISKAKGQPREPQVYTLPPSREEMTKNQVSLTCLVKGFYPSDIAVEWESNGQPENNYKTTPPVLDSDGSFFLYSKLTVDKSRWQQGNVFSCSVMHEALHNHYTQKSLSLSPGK
light: B6 light with S27N, D30N, S97R
notes: as for B6
Turning to B13, the binding result is listed as “binds”.
